{"source": "the supplement of paper PMC12042874", "note": "± gives the uncertainty stated by the source."}
{"test": "amyloid nucleation score (Sup35N fusion, yeast selection) (log enrichment); library NNK2; higher = more nucleation; inactive = no reads after selection", "method_in_brief": "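Plasmid inserts were Illumina-sequenced at input and output from psi-negative yeast expressing Sup35N fused to peptides of 20 random codons. The yeast were induced with 100 μM copper sulfate for 24 hours and grown 7 days at 30°C on medium lacking adenine and uracil, and sequences with under 100 input reads were excluded. Nucleation score is the DiMSum log enrichment of output over input reads, centred on the mode score of non-aggregating sequences.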"}
{"substance": "VDLTIVHRGGGAGMGSNRVK", "amyloid nucleation score": "0.176 ± 0.24"}
{"substance": "VFTYLSSDFYTGWTMVNHIM", "amyloid nucleation score": "-0.357 ± 0.21"}
{"substance": "KGGQK", "amyloid nucleation score": "-0.493 ± 0.34"}
{"substance": "IPSCRVFICRGNNVFRVPIT", "amyloid nucleation score": "-1.06 ± 1.1"}
{"substance": "SIAKFGWTIGRLGYIHIFIL", "amyloid nucleation score": "-1.16 ± 1.1"}
{"substance": "ALLQICCSFIIYHTLLPAPA", "amyloid nucleation score": "6.11 ± 0.064"}
{"substance": "RDLARTMI", "amyloid nucleation score": "1.67 ± 0.34"}
{"substance": "MQMLWYTMFFNSSRLVC", "amyloid nucleation score": "-1.58 ± 0.61"}
{"substance": "CNVSSWSFLPPS", "amyloid nucleation score": "inactive"}
{"substance": "NVIRHLPPSYWRSLHSQMFP", "amyloid nucleation score": "inactive"}
{"substance": "NCPSPLVWDCVLVVGDPVAC", "amyloid nucleation score": "0.217 ± 0.25"}
{"substance": "FLGDWKTCKVTGACKLCYGG", "amyloid nucleation score": "-0.018 ± 0.42"}
{"substance": "CFIRFSRMGLFLFCLPKNLQ", "amyloid nucleation score": "-1.59 ± 0.53"}
{"substance": "SEKGKEYSSVDMGQNGNTNM", "amyloid nucleation score": "-0.829 ± 0.63"}
{"substance": "LFYSTPDRCKRVDVSGISLM", "amyloid nucleation score": "-0.325 ± 0.76"}
{"substance": "SFASRYFSNKGGLHSDMCAS", "amyloid nucleation score": "inactive"}
{"substance": "NNLCQ", "amyloid nucleation score": "-0.1 ± 0.32"}
{"substance": "ILSCGRYWRTDTIVVTGNST", "amyloid nucleation score": "1.91 ± 0.35"}
{"substance": "DRFTAGLIFCMLCLGRYVCM", "amyloid nucleation score": "inactive"}
{"substance": "APKGMTLFPQMLTLMCNTVG", "amyloid nucleation score": "0.56 ± 0.74"}
{"substance": "NQFNVFFASVVLVVGCICNH", "amyloid nucleation score": "7.622 ± 0.029"}
{"substance": "SAFDKASERLCSESVYKGKN", "amyloid nucleation score": "1.7 ± 0.099"}
{"substance": "NNVPCRSIADVYALEFLYAS", "amyloid nucleation score": "inactive"}
{"substance": "PIFLFQRYPLLGLWLKKACD", "amyloid nucleation score": "inactive"}
{"substance": "SFCCFFRSSLVFNFLVYISG", "amyloid nucleation score": "0.081 ± 1.1"}
{"substance": "KSSDGPKAQV", "amyloid nucleation score": "1.13 ± 0.16"}
{"substance": "YVWSAKHSNIDCRVES", "amyloid nucleation score": "0.877 ± 0.36"}
{"substance": "RFLLVRSCQAISNRGNGLRE", "amyloid nucleation score": "5.08 ± 0.042"}
{"substance": "FFNLNQLMFKELSMRLGHRY", "amyloid nucleation score": "0.066 ± 0.74"}
{"substance": "RLWTCLEVLKFSGGLIASMY", "amyloid nucleation score": "-1.05 ± 0.44"}
{"substance": "GFRIGTLLGTMINSMNCSFI", "amyloid nucleation score": "2.88 ± 0.12"}
{"substance": "VCRVFIKLYI", "amyloid nucleation score": "1.03 ± 0.21"}
{"substance": "TMLEFNCSYLNI", "amyloid nucleation score": "2.98 ± 0.083"}
{"substance": "RAWETNFRVTTLDCNNYSSS", "amyloid nucleation score": "inactive"}
{"substance": "VYTCSIFYLGLVYRHISDSS", "amyloid nucleation score": "inactive"}
{"substance": "PSLAKRGVSVCLAKANSRTI", "amyloid nucleation score": "-0.388 ± 1"}
{"substance": "VWLNHLTTIYYCNHKLCLLL", "amyloid nucleation score": "2.17 ± 0.22"}
{"substance": "TSSVPGLRSWVWVKQDSDRW", "amyloid nucleation score": "1 ± 0.19"}
{"substance": "RGCMEVWVLYQSNALSM", "amyloid nucleation score": "4.18 ± 0.071"}
{"substance": "NDSNYKPANSYRSPSGNRMV", "amyloid nucleation score": "inactive"}
{"substance": "HYQYSFARTMVMLNMDWLML", "amyloid nucleation score": "0.462 ± 0.43"}
{"substance": "TLQKELSHVQETRYTW", "amyloid nucleation score": "-0.288 ± 1"}
{"substance": "VVRYLYRWTTVVGLHGGSHN", "amyloid nucleation score": "-0.786 ± 0.43"}
{"substance": "FCLALWWHYKFVLWFRNN", "amyloid nucleation score": "-0.836 ± 0.37"}
{"substance": "LHCLAISFNNFSLMVLYAGN", "amyloid nucleation score": "-0.187 ± 0.54"}
{"substance": "PDWLCEVKRIYELIGYMALI", "amyloid nucleation score": "0.41 ± 0.41"}
{"substance": "TGLGLIGLHSLVKVSRV", "amyloid nucleation score": "-0.255 ± 0.65"}
{"substance": "EVWRWIFNHGLPRHAGHIVA", "amyloid nucleation score": "0.312 ± 0.43"}
{"substance": "YCLSSNVGVFKCFNGNVVYS", "amyloid nucleation score": "3.54 ± 0.081"}
{"substance": "RVDTYYQNL", "amyloid nucleation score": "5.21 ± 0.059"}
{"substance": "LCCGLFFFVRVY", "amyloid nucleation score": "2.06 ± 0.091"}
{"substance": "KWVMRNIWDTYSKVGLQSST", "amyloid nucleation score": "-0.206 ± 0.39"}
{"substance": "TYVCDNTESYTCLWLL", "amyloid nucleation score": "7.791 ± 0.038"}
{"substance": "SDRGYSE", "amyloid nucleation score": "3.2 ± 0.14"}
{"substance": "LCSFAMKLVCNRVMAFDIES", "amyloid nucleation score": "1.68 ± 0.19"}
{"substance": "DACWFMIGHIGFC", "amyloid nucleation score": "inactive"}
{"substance": "TCLMVVE", "amyloid nucleation score": "0.539 ± 0.66"}
{"substance": "CRSAVRRILGFNLSRVFSWF", "amyloid nucleation score": "-0.417 ± 0.64"}
{"substance": "LVFKAPRTITSPCCYGSNWS", "amyloid nucleation score": "0.504 ± 0.36"}
{"substance": "NSYIRHSFLQTRFISTNV", "amyloid nucleation score": "-0.306 ± 0.36"}
{"substance": "SYNTRFIASSCSGSY", "amyloid nucleation score": "-1.06 ± 0.76"}
{"substance": "YDSWLDTVVFDFFCLCLDKA", "amyloid nucleation score": "-1.42 ± 0.75"}
{"substance": "VAYYLCAGTSGDTFGKANQS", "amyloid nucleation score": "0.222 ± 0.8"}
{"substance": "LPQMNMGFLGSLNFEGMKRA", "amyloid nucleation score": "1.47 ± 0.2"}
{"substance": "NLFLFVRGLGRGWSWWWEVR", "amyloid nucleation score": "0.415 ± 0.8"}
{"substance": "AWANRMWWAR", "amyloid nucleation score": "4.23 ± 0.074"}
{"substance": "CNRAQLNVSPNLDDMRKFGV", "amyloid nucleation score": "-0.506 ± 1"}
{"substance": "LLTMGVGRVGAWEQN", "amyloid nucleation score": "0.801 ± 0.82"}
{"substance": "RNYVIFTSEAKVAADIPLYL", "amyloid nucleation score": "2.45 ± 0.21"}
{"substance": "RYCVDNW", "amyloid nucleation score": "0.122 ± 0.41"}
{"substance": "YSFELGDFRMEKLIRDMVKC", "amyloid nucleation score": "-0.932 ± 0.42"}
{"substance": "VSHSSIWSGSLKKSVSCDHV", "amyloid nucleation score": "inactive"}
{"substance": "LSILCGDCSDGRS", "amyloid nucleation score": "-0.245 ± 0.2"}
{"substance": "MGTHKTDGRRQYLVVSSCEV", "amyloid nucleation score": "0.115 ± 1"}
{"substance": "RMWCLGLDPLYTENKGSSDA", "amyloid nucleation score": "-0.427 ± 1.1"}
{"substance": "LTLIVNPLVNSPPGPQASLT", "amyloid nucleation score": "0.735 ± 0.23"}
{"substance": "LKYVVTVHIMFMLSSWSQGC", "amyloid nucleation score": "-0.814 ± 0.79"}
{"substance": "ALISSPANCAISWITCILVV", "amyloid nucleation score": "5.947 ± 0.034"}
{"substance": "VRDDCARWK", "amyloid nucleation score": "0.327 ± 0.45"}
{"substance": "RQFPGFSSYPTLEINFYICV", "amyloid nucleation score": "6.76 ± 0.069"}
{"substance": "AFCLTLTGACLSMSDVARFT", "amyloid nucleation score": "4.19 ± 0.098"}
{"substance": "RDRRASYLVVASPTAGLHMV", "amyloid nucleation score": "3.34 ± 0.078"}
{"substance": "HVLEVPPAYPTQTSGMNPNS", "amyloid nucleation score": "-0.143 ± 0.76"}
{"substance": "SLYVKFPFMSDWLSMNHRMN", "amyloid nucleation score": "-0.64 ± 0.34"}
{"substance": "TCVLKVFVL", "amyloid nucleation score": "-1.43 ± 1.1"}
